# From patent US20210261648A1 (published 2021)
# Substitutions are numbered along the chain they refer to.
# T1: FcγRIIb extracellular domain with C-terminal His tag (human, UniProt P31994 43-217)
# T1 construct: extracellular domain; For crystals it was expressed with kifunensine and trimmed with Endo F1; also called FcgRIIb; FcγRIIb extracellular region
# T1 sequence (looked up): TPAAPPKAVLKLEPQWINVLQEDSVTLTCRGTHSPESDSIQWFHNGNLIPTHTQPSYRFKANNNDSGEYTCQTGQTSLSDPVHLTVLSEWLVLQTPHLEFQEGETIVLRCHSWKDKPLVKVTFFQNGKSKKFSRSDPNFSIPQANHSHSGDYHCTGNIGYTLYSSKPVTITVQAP
# T2: FcγRIIa type H extracellular domain with C-terminal His tag (human, UniProt P12318 34-217)
# T2 construct: extracellular domain; also called FcgRIIaH; FcγRIIa H
# T2 sequence (looked up): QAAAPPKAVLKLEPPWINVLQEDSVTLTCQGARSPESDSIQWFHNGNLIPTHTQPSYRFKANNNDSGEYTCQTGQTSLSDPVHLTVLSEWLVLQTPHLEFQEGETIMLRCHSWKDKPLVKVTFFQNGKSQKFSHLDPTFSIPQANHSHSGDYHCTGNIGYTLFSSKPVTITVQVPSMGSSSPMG
# T3: FcγRIIb extracellular domain with C-terminal His tag (human, UniProt P31994 43-217)
# T3 construct: extracellular domain; also called FcgRIIb
# T3 sequence (looked up): T1 sequence (looked up)
# B1: IL6R-BP450/IL6R-L (antibody, human IgG1, kappa, name in EU numbering)
# heavy: QVQLQESGPGLVKPSETLSLTCAVSGHSISHDHAWSWVRQPPGEGLEWIGFISYSGITNYNPSLQGRVTISRDNSKNTLYLQMNSLRAEDTAVYYCARSLARTTAMDYWGEGTLVTVSSASTKGPSVFPLAPSSKSTSGGTAALGCLVKDYFPEPVTVSWNSGALTSGVHTFPAVLQSSGLYSLSSVVTVPSSSLGTQTYICNVNHKPSNTKVDKKVEPKSCDKTHTCPPCPAPDLLGDDSVFLFPPKPKDTLMISRTPEVTCVVVDVAEEDGEVKFNWYVDGVEVHNAKTKPREEQYNSTYRVVSVLTVLHQDWLNGKEYKCKVSNKALPRPIEKTISKAKGQPREPQVYTLPPSRDELTKNQVSLTCLVKGFYPSDIAVEWESNGQPENNYKTTPFVLDSDGSFFLYSKLTVDKSRWQQGNVFSCSVMHEALHNHYTQESLSLSP
# light: not shown
# B2: IL6R-BP453/IL6R-L (antibody)
# heavy: B1 heavy with F398I
# light: not shown
# notes: Printed 'P3961'
# B3: IL6R-BP455/IL6R-L (antibody, human IgG1, kappa, name in EU numbering)
# heavy: B1 heavy with F398L
# light: not shown
# B4: IL6R-BP458/IL6R-L (antibody, human IgG1, kappa, name in EU numbering)
# heavy: B1 heavy with F398Q
# light: not shown
# B5: IL6R-BP454/IL6R-L (antibody, human IgG1, kappa, name in EU numbering)
# heavy: B1 heavy with F398K
# light: not shown
# B6: IL6R-BP391/IL6R-L (antibody, human IgG1, kappa)
# heavy: B1 heavy with A269S, E270D, Y298D, I334T, F398P
# light: not shown
# B7: IL6R-BP449/IL6R-L (antibody, human IgG1, kappa, name in EU numbering)
# heavy: B1 heavy with F398E
# light: not shown
# B8: IL6R-BP456/IL6R-L (antibody, human IgG1, kappa, name in EU numbering)
# heavy: B1 heavy with F398M
# light: not shown
# B9: IL6R-BP448/IL6R-L (antibody, human IgG1, kappa, name in EU numbering)
# heavy: B1 heavy with F398D
# light: not shown
# B10: IL6R-BP404/IL6R-L (antibody, human IgG1, kappa)
# heavy: B1 heavy with L236Y, A269S, Y298D, F398P
# light: not shown
# B11: IL6R-BP084/IL6R-L (antibody, human IgG1, kappa)
# heavy: B1 heavy with D235E, D239G, A269S, E270H, G273P, V325M, R332K, F398P
# light: not shown
# B12: IL6R-BP185/IL6R-L (antibody, human IgG1, kappa)
# heavy: B1 heavy with L236Y, A269S, E270H, K328A, R332K, F398P
# light: not shown
# B13: IL6R-BP087/IL6R-L (antibody, human IgG1, kappa)
# heavy: B1 heavy with D235E, L236Y, D239G, A269S, E270H, G273P, R332K, F398P
# light: not shown
# B14: IL6R-BP152/IL6R-L (antibody, human IgG1, kappa)
# heavy: B1 heavy with L236Y, A269S, E270H, G273P, Y298D, K328A, F398P
# light: not shown
# B15: IL6R-BP145/IL6R-L (antibody, human IgG1, kappa)
# heavy: B1 heavy with D235E, L236Y, A269S, E270H, G273P, R332A, F398P
# light: not shown
# B16: IL6R-BP200/IL6R-L (antibody, human IgG1, kappa)
# heavy: B1 heavy with L236Y, A269S, E270H, K328D, F398P
# light: not shown
# B17: IL6R-BP149/IL6R-L (antibody, human IgG1, kappa)
# heavy: B1 heavy with L236Y, A269S, E270H, G273P, Y298D, K328A, R332K, F398P
# light: not shown
# B18: IL6R-BP186/IL6R-L (antibody, human IgG1, kappa)
# heavy: B1 heavy with L236Y, A269S, E270H, Y298D, K328A, R332K, F398P
# light: not shown
# B19: IL6R-BP148/IL6R-L (antibody, human IgG1, kappa)
# heavy: B1 heavy with L236Y, A269S, E270H, G273P, K328A, R332K, F398P
# light: not shown
# Target: T1, FcγRIIb extracellular domain with …
# Assay: SPR (Biacore)
binding result,fold increase of binding against IL6R-BP264/IL6R-L,Binder
binds,,B1
binds,,B2
binds,,B3
binds,,B4
binds,,B5
binds,,B6
binds,,B7
binds,,B8
binds,,B9
,1.1 fold,B10

# Target: T4, FcγRIa extracellular domain with C-terminal His tag (human, UniProt P12314 16-292)
# T4 construct: also called FcgRIa
# T4 sequence (P12314 16-292): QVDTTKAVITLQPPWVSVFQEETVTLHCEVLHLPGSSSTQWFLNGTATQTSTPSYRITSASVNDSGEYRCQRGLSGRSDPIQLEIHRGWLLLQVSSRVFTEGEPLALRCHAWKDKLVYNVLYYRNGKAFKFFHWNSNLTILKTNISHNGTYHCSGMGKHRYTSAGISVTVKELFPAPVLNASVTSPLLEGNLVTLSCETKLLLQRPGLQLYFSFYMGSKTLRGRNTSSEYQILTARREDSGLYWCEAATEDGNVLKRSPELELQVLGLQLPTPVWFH
# Assay: SPR, captured antibody, FcgR analyte
# Procedure: (§1) Relative binding activities were calculated for the results of analyzing interactions with the respective FcγRs according to the following method.
row,relative binding activity,Binder
1,109 relative (IL6R-BF648/IL6R-L = 100),B11
2,47 relative (IL6R-BF648/IL6R-L = 100),B12
3,33 relative (IL6R-BF648/IL6R-L = 100),B13
4,34 relative (IL6R-BF648/IL6R-L = 100),B14
5,41 relative (IL6R-BF648/IL6R-L = 100),B15
6,60 relative (IL6R-BF648/IL6R-L = 100),B16
7,29 relative (IL6R-BF648/IL6R-L = 100),B17
8,43 relative (IL6R-BF648/IL6R-L = 100),B18
9,33 relative (IL6R-BF648/IL6R-L = 100),B19

# Target: T2, FcγRIIa type H extracellular domain …
# Assay: SPR, captured antibody, FcgR analyte
# Procedure: as §1
row,relative binding activity,Binder
1,162 relative (IL6R-BF648/IL6R-L = 100),B11
2,446 relative (IL6R-BF648/IL6R-L = 100),B12
3,179 relative (IL6R-BF648/IL6R-L = 100),B13
4,548 relative (IL6R-BF648/IL6R-L = 100),B14
5,224 relative (IL6R-BF648/IL6R-L = 100),B15
6,517 relative (IL6R-BF648/IL6R-L = 100),B16
7,401 relative (IL6R-BF648/IL6R-L = 100),B17
8,368 relative (IL6R-BF648/IL6R-L = 100),B18
9,462 relative (IL6R-BF648/IL6R-L = 100),B19

# Target: T3, FcγRIIb extracellular domain with …
# Assay: SPR, captured antibody, FcgR analyte
# Procedure: as §1
row,relative binding activity,Binder
1,141 relative (IL6R-BF648/IL6R-L = 100),B11
2,179 relative (IL6R-BF648/IL6R-L = 100),B12
3,137 relative (IL6R-BF648/IL6R-L = 100),B13
4,178 relative (IL6R-BF648/IL6R-L = 100),B14
5,152 relative (IL6R-BF648/IL6R-L = 100),B15
6,188 relative (IL6R-BF648/IL6R-L = 100),B16
7,173 relative (IL6R-BF648/IL6R-L = 100),B17
8,175 relative (IL6R-BF648/IL6R-L = 100),B18
9,176 relative (IL6R-BF648/IL6R-L = 100),B19
